Assay results: PMC6640709, “Selection and Characterization of a Nanobody Biosensor of GTP-Bound RHO Activities” (Antibodies, 2019)

B1: RH57 hs2dAb fused at its carboxy terminal end with 6xHis-Myc-6xHis tag (VHH)
VHH: EVQLQASGGGFVQPGGSLRLSCAASGDTWWSSAMGWFRQAPGKEREFVSAISFYPTEYTYYADSVKGRFTISRDNSKNTVYLQMNSLRAEDTATYYCAWIAWGPWMRTSWYWGQGTQVTVSS
notes: humanized synthetic single domain antibody from the NaLi-H1 phage display library; also called RH57-6xhis-myc-6xhis; RH57 nanobody; source: E. coli XL1BLUE periplasm, purified (His-tag purification beads); not shown: 6xHis, C-terminal, kept; Myc, C-terminal, kept
B2: RH57 intracellular antibody with carboxy-terminal 6xHis tag followed by Myc tag (VHH)
VHH: B1 VHH
notes: as the VHH of m1; also called hs2dAb RH57 with a 6xhis and carboxy Myc tag; source: HeLa, transiently transfected, in lysate; not shown: 6xHis, C-terminal, kept; Myc, C-terminal, kept

How the values were obtained:
[1] = biological target: 2SHA-RHOA N19 dominant negative mutant, deleted for the CAAX motif (UniProt P61586 1-189, T19N); assay: SPR
[2] = biological target: T1, 2SHA-RHOA wild type, deleted for the CAAX motif (Homo sapiens (Human)., UniProt P61586); assay: SPR; RH57-6xHis-Myc-6xHis captured on Ni-NTA chip; 2S-HA-RHOA WT loaded with GTPγS as analyte, 12.5-200 nM, single-cycle kinetics; HBS-P+; 1:1 Langmuir fit; details: both partners purified
T1 construct: RHOA (Ras homologous family member A), deleted for the carboxy terminal four amino acids (CAAX motif); the two nucleotide states are told apart by the assay; also called RHOA WT; 2S-HA-RHOA wt; source: E. coli BL21(DE3), purified (Strep-Tactin), loaded with GTPγS or GDP; not shown: 2x-Strep-tag, N-terminal, kept; HA, N-terminal, kept

[3] = biological target: T2, 2SHA-RHOA L63 constitutively active mutant, deleted for the CAAX motif (Homo sapiens (Human)., UniProt P61586, Q63L); assay: SPR; RH57-6xHis-Myc-6xHis captured on Ni-NTA chip (250-300 RU); 2S-HA-RHOA L63 or N19 as analyte, 3.125-50 nM, single-cycle kinetics; HBS-P+ (10 mM HEPES pH 7.4, 150 mM NaCl, 0.05% P20); 1:1 Langmuir fit; BIAcore T200; details: both partners purified
T2 construct: RHOA (Ras homologous family member A), deleted for the carboxy terminal four amino acids (CAAX motif); also called RHOA-CA; RHOA Q63L; source: E. coli BL21(DE3), purified (Strep-Tactin); not shown: 2x-Strep-tag, N-terminal, kept; HA, N-terminal, kept

endogenous RHOC = biological target: T3, endogenous RHOC (Homo sapiens (Human)., UniProt P08134); assay: co-IP; RH57-6xHis-Myc expressed in HeLa; fresh, non-loaded lysate; intracellular antibody captured on His-tag Ni-NTA resin; endogenous RHO proteins blotted; details: partners not purified
T3 construct: RHOC, endogenous in HeLa cells; also called RHOA/B/C proteins; source: endogenous, HeLa lysate

endogenous RHOB = biological target: T4, endogenous RHOB (Homo sapiens (Human)., UniProt P62745); assay: as above; details: partners not purified
T4 construct: RHOB (RAS homologous family member B), endogenous in HeLa cells; also called RHOA/B/C proteins; source: endogenous, HeLa lysate
T4 sequence (P62745 whole entry): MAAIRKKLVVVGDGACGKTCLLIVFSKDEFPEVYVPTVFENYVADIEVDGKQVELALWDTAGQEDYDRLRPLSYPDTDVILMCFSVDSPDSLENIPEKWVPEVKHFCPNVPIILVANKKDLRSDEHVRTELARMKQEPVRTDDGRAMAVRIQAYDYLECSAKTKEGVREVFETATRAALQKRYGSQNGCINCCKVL

T3 sequence (P08134 whole entry): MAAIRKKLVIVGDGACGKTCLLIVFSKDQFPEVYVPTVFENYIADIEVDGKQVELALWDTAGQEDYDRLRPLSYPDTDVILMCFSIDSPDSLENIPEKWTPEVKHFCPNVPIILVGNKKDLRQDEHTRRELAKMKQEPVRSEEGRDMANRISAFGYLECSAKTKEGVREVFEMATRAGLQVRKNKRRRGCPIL
T2 sequence (P61586 1-189 Q63L): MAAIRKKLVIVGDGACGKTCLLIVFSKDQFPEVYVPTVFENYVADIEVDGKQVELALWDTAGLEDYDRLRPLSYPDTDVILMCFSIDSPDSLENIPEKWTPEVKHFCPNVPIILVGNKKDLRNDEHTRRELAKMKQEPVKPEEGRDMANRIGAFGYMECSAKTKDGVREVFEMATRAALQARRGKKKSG
Sequence of 2SHA-RHOA N19 dominant negative mutant, deleted for the CAAX motif (P61586 1-189 T19N): as the sequence (P61586 1-189 Q63L) above, with T19N, L63Q counted along it
T1 sequence (P61586 1-189, stated change not applied): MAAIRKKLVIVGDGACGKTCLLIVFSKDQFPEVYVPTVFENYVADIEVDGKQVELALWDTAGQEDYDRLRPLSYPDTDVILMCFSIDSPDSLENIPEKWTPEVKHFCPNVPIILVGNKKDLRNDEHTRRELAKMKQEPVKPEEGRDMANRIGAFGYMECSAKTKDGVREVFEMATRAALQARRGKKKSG

Binder | Kd [1] [nM] | Kd [2] [nM] | Kd [3] [nM] | binding result (endogenous RHOC) | binding result (endogenous RHOB)
B1 | 2410 | 60.5 | 28 |  | 
B2 |  |  |  | binds | binds
